For the experiment, the target named is 人SIRPα抗原 (human signal regulatory protein alpha, proprietary antigen) (human) (UniProt P78324). The experiment in a line: BLI (Octet Red384), SIRPa on AR2G sensor, 50 nM CD47 without antibody as analyte (positive control), 1200 s association. In general terms: Biolayer interferometry detects binding as a change in optical thickness at a sensor tip.
Chain of UniProt P78324 (P78324 31-370 limits assumed): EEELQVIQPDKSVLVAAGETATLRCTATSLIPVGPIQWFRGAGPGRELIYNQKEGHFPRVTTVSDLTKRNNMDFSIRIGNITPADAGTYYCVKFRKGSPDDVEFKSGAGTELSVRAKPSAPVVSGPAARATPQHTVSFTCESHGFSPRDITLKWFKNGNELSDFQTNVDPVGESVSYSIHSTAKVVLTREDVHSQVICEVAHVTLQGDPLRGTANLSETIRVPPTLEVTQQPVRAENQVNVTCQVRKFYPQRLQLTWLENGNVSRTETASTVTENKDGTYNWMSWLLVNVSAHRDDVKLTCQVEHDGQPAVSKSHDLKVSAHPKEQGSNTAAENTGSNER

Consider “专有CD47抗原 (proprietary human CD47 antigen of Examples 6 and 7) (from UniProt Q08722 19-139) (receptor)”, for which the 信号 (response) came to 0.297 nm.

Source of the values: patent publication CN117858904A.
